From article PMC11142274 (bioRxiv, 2024)

T1: Tom70-EGFP-CNPase-ALFAtag (Mus musculus (assumed))
T1 chain: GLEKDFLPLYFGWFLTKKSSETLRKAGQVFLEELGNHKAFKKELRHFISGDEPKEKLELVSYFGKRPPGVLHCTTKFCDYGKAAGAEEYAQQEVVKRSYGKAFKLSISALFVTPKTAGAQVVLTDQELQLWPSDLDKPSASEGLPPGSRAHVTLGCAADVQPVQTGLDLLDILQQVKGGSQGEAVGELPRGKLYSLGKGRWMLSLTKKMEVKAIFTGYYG

B1: anti-CNPase nanobody NbCNP 8D (VHH)
VHH: EVQLEESGGGLVQPGGSLRLSCAASGFTFSSYVMSWVRQAPGKGLEWVSDINSGGSRTYYTDSVKGRFTISRDNAKNTLYLQMNSLKPEDTAVYYCARDSLLSTRYLHTSERGQGTQVTVSS
B2: iNbCNP 8D fused to mRuby3 (VHH)
VHH: B1 VHH
B3: anti-CNPase nanobody NbCNP 8C (VHH)
VHH: EVQLEESGGGLVQAGGSLTLSCAASGFTFDDYAMGWYRQAPGKERVGVSCISRTDGYTYYLDSVKGRFTISTDHAKHTVYLQMNNLKPDDTGLYYCAADADPEYGSRCPDPYYGMDYWGKGILVTVSS
B4: anti-CNPase nanobody NbCNP 7E (VHH)
VHH: EVQLEESGGGWVHPGGSLRLSCAASGNVFGVNTMAWYRQAPGKQREQRELVASITDYGTTEYADSVKGRFTISGDNAKATVYLQMNSLKPEDTAVYYCNMDLTVMTATSSLYAYDYWGQGTQVTVSS
B5: anti-CNPase nanobody NbCNP 10E (VHH)
VHH: EVQLEESGGGLVQPGGSLRLSCAVSGITLDDFGIGWFRQAPGKEREGVACISPGYEHIYYADSAKGRFTISRDNAKNTVYLQMNNLKPWDTGVYYCAADNDLPDRLWGGSDWSDPSPYDYWGQGTQVTVSS
B6: MaBP-10E (His6-maltose binding protein fusion of NbCNP 10E) (VHH)
VHH: B5 VHH
B7: iNbCNP 10E fused to mRuby3 (VHH)
VHH: B5 VHH

Key:
[1] = biological target: T2, full-length mouse CNPase (Mus musculus, UniProt P16330); assay: DSF thermal shift
T2 sequence (P16330 whole entry): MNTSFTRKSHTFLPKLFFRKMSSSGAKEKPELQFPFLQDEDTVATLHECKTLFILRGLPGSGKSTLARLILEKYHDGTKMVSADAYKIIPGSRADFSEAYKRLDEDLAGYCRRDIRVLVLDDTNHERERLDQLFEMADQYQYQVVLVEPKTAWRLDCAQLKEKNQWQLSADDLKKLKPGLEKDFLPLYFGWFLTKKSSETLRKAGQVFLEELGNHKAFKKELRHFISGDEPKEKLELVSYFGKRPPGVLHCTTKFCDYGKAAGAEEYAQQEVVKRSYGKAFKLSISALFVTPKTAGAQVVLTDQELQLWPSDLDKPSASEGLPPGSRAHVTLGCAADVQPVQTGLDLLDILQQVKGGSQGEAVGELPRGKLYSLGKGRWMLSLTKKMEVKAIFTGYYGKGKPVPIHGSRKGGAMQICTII

[2] = biological target: T2, full-length mouse CNPase; assay: nanoDSF thermal shift
[3] = biological target: T1, Tom70-EGFP-CNPase-ALFAtag; assay: co-localisation with a target anchored to mitochondria
[4] = biological target: T3, mouse CNPase catalytic domain (mouse, UniProt P16330); assay: SEC-SAXS
[5] = biological target: T3, mouse CNPase catalytic domain; assay: ITC
[6] = biological target: T3, mouse CNPase catalytic domain; assay: SEC-SAXS; remark: listed apart in the source
[7] = biological target: T2, full-length mouse CNPase; assay: enzyme inhibition kinetics

| Binder | ΔTm of CNPase [1] [°C] | ΔTm of CNPase [2] [°C] | binding result [3] | stoichiometry N [4] | Kd [5] [nM] | dH [5] [kcal/mol] | stoichiometry N [5] | stoichiometry N [6] | Ki [7] [nM] |
| --- | --- | --- | --- | --- | --- | --- | --- | --- | --- |
| B1 | 18 | 17.7 |  |  |  |  |  |  |  |
| B2 |  |  | binds |  |  |  |  |  |  |
| B3 | 9.2 |  |  | 1 | 16.6 | -7.07 | 0.914 |  |  |
| B4 | 2.1 |  |  | 1 | 83.3 | -14.2 | 0.863 |  |  |
| B5 | 4.2 |  |  |  | 9.8 | -12.1 | 0.804 | 2 molecules of CNPase per 10E molecule | 0.604 ± 0.0507 |
| B6 |  |  |  |  | 13.4 | -18.1 | 0.836 |  |  |
| B7 |  |  | binds |  |  |  |  |  |  |
